Reference: PMC12697864, “cGAS Inhibits ALDH2 to Suppress Lipid Droplet Function and Regulate MASLD Progression” (Advanced Science, 2025)

Target: the molecule itself
Experiment: mass photometry; TWOMP (Refeyn), room temperature, 1X PBS with 1 mM β-mercaptoethanol, proteins at 10 nM-400 nM; hALDH2 with NAD+, with or without mcGAS; tetramer formation

B1: His-ALDH2, purified full-length human ALDH2 (enzyme, UniProt P05091 18-517, looked up)
chain: SAAATQAVPAPNQQPEVFCNQIFINNEWHDAVSRKTFPTVNPSTGEVICQVAEGDKEDVDKAVKAARAAFQLGSPWRRMDASHRGRLLNRLADLIERDRTYLAALETLDNGKPYVISYLVDLDMVLKCLRYYAGWADKYHGKTIPIDGDFFSYTRHEPVGVCGQIIPWNFPLLMQAWKLGPALATGNVVVMKVAEQTPLTALYVANLIKEAGFPPGVVNIVPGFGPTAGAAIASHEDVDKVAFTGSTEIGRVIQVAAGSSNLKRVTLELGGKSPNIIMSDADMDWAVEQAHFALFFNQGQCCCAGSRTFVQEDIYDEFVERSVARAKSRVVGNPFDSKTEQGPQVDETQFKKILGYINTGKQEGAKLLCGGGIAADRGYFIQPTVFGDVQDGMTIAKEEIFGPVMQILKFKTIEEVVGRANNSTYGLAAAVFTKDLDKANYLSQALQAGTVWVNCYDVFGAQSPFGGYKMSGSGRELGEYGLQAYTEVKTVTVKVPQKNS
notes: aldehyde dehydrogenase 2 (ALDH2), human, full-length gene, codon-optimised, in pET28a; Two preparations: likely apo hALDH2, and tetrameric hALDH2 isolated by SEC after incubation with 1 mM NAD+; Tetramer forms with NAD+ (mass photometry); also called hALDH2; bacterially purified ALDH2 proteins; source: E. coli Rosetta (DE3), purified (Ni Sepharose, Q column, SEC); not shown: His6, N-terminal, kept
  stoichiometry N: 4
